Assay results from patent US20260243766A1 (published 2026).

Target: R6A/Q72R
Test: SPR

B1: 10LH (scFv)
scFv: SRNGGDGQSVLTQPPSVSVSPGQTASITCSGDSLGNKYACWYQQKPGQSPVLVIYQDSKRPSGIPERFSGSNSGNTATLTISGTQAMDEADYYCQAWDSSRGYTVVFGTGTKVTVSSQTGGSGGGGSGGGGSGGGGSEVQLLESGGGLVQPGGSLRLSCAASGFTFDSYAMSWVRQAPGKGLEWVSAISGYGGSTYYADSVKGRFTISRDNSKNTLYLQMNSLRAEDTAVYYCAKYTYFLDAFDIWGQGTMVTVSSS
Kd: 18.8 µM
